Consider 3 substances from publication PMC4081085.

Assay in all cases: fluorescence polarization
One data set concerns PARP-2 WT. Particulars: none, FP: 5 nM labeled DNA, 30 min, RT, PARP-1/-2 buffer per cited ref 19, PARP-3 in 12 mM HEPES pH 8.0, 30 mM KCl (low) or 60 mM KCl (intermediate), 0.12 mM EDTA.
For the next data set, the system named is PARP-2 R140A. Particulars: 5' phosphate on one strand, FP: 5 nM labeled DNA, 30 min, RT, PARP-1/-2 buffer per cited ref 19, PARP-3 in 12 mM HEPES pH 8.0, 30 mM KCl (low) or 60 mM KCl (intermediate), 0.12 mM EDTA.
A further data set concerns PARP-2 Y188F. Particulars: 5' phosphate on one strand, FP: 5 nM labeled DNA, 30 min, RT, PARP-1/-2 buffer per cited ref 19, PARP-3 in 12 mM HEPES pH 8.0, 30 mM KCl (low) or 60 mM KCl (intermediate), 0.12 mM EDTA.
Another data set deals with PARP-2 N116A. Particulars: 5' phosphate on one strand, FP: 5 nM labeled DNA, 30 min, RT, PARP-1/-2 buffer per cited ref 19, PARP-3 in 12 mM HEPES pH 8.0, 30 mM KCl (low) or 60 mM KCl (intermediate), 0.12 mM EDTA.
A further data set relates to dNTR-PARP-2. Particulars: 5' phosphate on one strand, FP: 5 nM labeled DNA, 30 min, RT, PARP-1/-2 buffer per cited ref 19, PARP-3 in 12 mM HEPES pH 8.0, 30 mM KCl (low) or 60 mM KCl (intermediate), 0.12 mM EDTA.
The subject of the next data set is PARP-2 W138A. As to conditions: 5' phosphate on one strand, FP: 5 nM labeled DNA, 30 min, RT, PARP-1/-2 buffer per cited ref 19, PARP-3 in 12 mM HEPES pH 8.0, 30 mM KCl (low) or 60 mM KCl (intermediate), 0.12 mM EDTA.
Another data set deals with dNTR-PARP-3. As to conditions: low ionic strength buffer?, 5' phosphate at nick, position 24, FP: 5 nM labeled DNA, 30 min, RT, PARP-1/-2 buffer per cited ref 19, PARP-3 in 12 mM HEPES pH 8.0, 30 mM KCl (low) or 60 mM KCl (intermediate), 0.12 mM EDTA.
The test system of another data set is PARP-3 Y150F. Particulars: 5' phosphate at nick, position 24, FP: 5 nM labeled DNA, 30 min, RT, PARP-1/-2 buffer per cited ref 19, PARP-3 in 12 mM HEPES pH 8.0, 30 mM KCl (low) or 60 mM KCl (intermediate), 0.12 mM EDTA.
The test system of the next data set is PARP-3 R103A. Particulars: 5' phosphate at nick, position 24, FP: 5 nM labeled DNA, 30 min, RT, PARP-1/-2 buffer per cited ref 19, PARP-3 in 12 mM HEPES pH 8.0, 30 mM KCl (low) or 60 mM KCl (intermediate), 0.12 mM EDTA.

28-bp duplex 5'OH (non-phosphorylated) registered a binding signal (fold lower affinity than for 5'P DNA) in the data set on PARP-2 WT of 2.5.

For 28-bp duplex 5'P (template 18), the binding signal (% of WT affinity) in the data set with PARP-2 R140A was 25; in the data set on PARP-2 Y188F, 7; with PARP-2 N116A, 45; in the data set with PARP-2 W138A it was 28. The same substance displayed a binding signal (fold lower affinity than WT) in the data set on dNTR-PARP-2 of 4.

Turning to 47-bp duplex with 5'P nick (template 8), the binding signal (fold lower affinity than WT) with dNTR-PARP-3 was 3.5. Also, the values for the binding signal (% of WT affinity) in the data set with PARP-3 Y150F and in the data set with PARP-3 R103A were 54 and 25, respectively.
